This is an account of results in patent US20130123350, “NUCLEIC ACID MOLECULE CAPABLE OF BINDING TO c-MET AND USE THEREOF” (KANAGAWA PREFECTURAL HOSPITAL ORGANIZATION, published 2013).

B1: g24 2'-F (ssRNA)
RNA: GGGACGCUCACGUACGCUAAGAGUUGUCGCACAGCGACUCGAAAAUAAUCUGUCCGACACUCAGUGCCUGGACGUGCAGU
modifications: 2'-F on all C and U
B2: g32 2'-F (ssRNA)
RNA: GGGACGCUCACGUACGCUAAACAAGACCGGGAUGGGGGUUGGUCACACACAAAGACUGAAUCAGUGCCUGGACGUGCAGU
modifications: 2'-F on all C and U
B3: g23 2'-F (ssRNA)
RNA: GGGACGCUCACGUACGCUAAAUGGGAGUGCGCCUCGGCUCUAACGGAGGUAUGCACGUCAUCAGUGCCUGGACGUGCAGU
modifications: 2'-F on all C and U
B4: g33 2'-F (ssRNA)
RNA: GGGACGCUCACGUACGCUAAACUUUUGGCGAUCUCCGGCCGGAUACGGGAGAACGAGGUAUCAGUGCCUGGACGUGCAGU
modifications: 2'-F on all C and U
B5: g16 2'-F (ssRNA)
RNA: GGGACGCUCACGUACGCUAACCGCUACCGGGUGCAACGGGUAGACUGUAACCAGGUGAUAUCAGUGCCUGGACGUGCAGU
modifications: 2'-F on all C and U
B6: g13 2'-F (ssRNA)
RNA: GGGACGCUCACGUACGCUAAUCACUCGGACAGCCGGAGCGAAACGGGCUGUGUAAGACUGUCAGUGCCUGGACGUGCAGU
modifications: 2'-F on all C and U
B7: g15 2'-F (ssRNA)
RNA: GGGACGCUCACGUACGCUAAGACGCGGGCCACCGGCUAGCGACGGGUGGUAAAGGGCUUGUCAGUGCCUGGACGUGCAGU
modifications: 2'-F on all C and U
B8: g30 2'-F (ssRNA)
RNA: GGGACGCUCACGUACGCUAAAAAUUGCCGGGAUCUGGUGUGGCGACCAUGCGGCGUGCAUUCAGUGCCUGGACGUGCAGU
modifications: 2'-F on all C and U
B9: g31 2'-F (ssRNA)
RNA: GGGACGCUCACGUACGCUAAAGAGUCUAUGCCGUGAGUGAGGGUGGCGCCUCGACUGCCAUCAGUGCCUGGACGUGCAGU
modifications: 2'-F on all C and U
B10: g36 2'-F (ssRNA)
RNA: GGGACGCUCACGUACGCUAACUUGAUUGGUCGCAACCGGACAAGGACGGGUUGAUGCAGUUCAGUGCCUGGACGUGCAGU
modifications: 2'-F on all C and U
B11: g37 2'-F (ssRNA)
RNA: GGGACGCUCACGUACGCUAAGGUUUGCUCCGACCGACUAAAGGGAGCCUCUGUCACGAGUUCAGUGCCUGGACGUGCAGU
modifications: 2'-F on all C and U
B12: g20 2'-F (ssRNA)
RNA: GGGACGCUCACGUACGCUAAACGUUGUGGCGAACUUCGGCCCGAACGGGAGUAACUGCAUCAGUGCCUGGACGUGCAGU
modifications: 2'-F on all C and U
B13: g7 2'-F (ssRNA)
RNA: GGGACGCUCACGUACGCUAACUUGAAGUCAAGGGUAGAGUGACCAUGCAGCUCGUAGACAUCAGUGCCUGGACGUGCAGU
modifications: 2'-F on all C and U
B14: g3 2'-F (ssRNA)
RNA: GGGACGCUCACGUACGCUAAGGGCGAAACUGUCGUGACACGGUUUGACAUGCCGGCCUUAUCAGUGCCUGGACGUGCAGU
modifications: 2'-F on all C and U
B15: g4 2'-F (ssRNA)
RNA: GGGACGCUCACGUACGCUAAUACCGUGAUUCGGGGUGGUAUCCGGUGGACAUCCAGGUCGUCAGUGCCUGGACGUGCAGU
modifications: 2'-F on all C and U
B16: g18 2'-F (ssRNA)
RNA: GGGACGCUCACGUACGCUAAGGCACCCUAUAGGAUUCAGCCCCUAACCCGGUGUUGUGAAUCAGUGCCUGGACGUGCAGU
modifications: 2'-F on all C and U
B17: g22 2'-F (ssRNA)
RNA: GGGACGCUCACGUACGCUAAGCGUGUUUCUUCAUUUCGACGCUGGCCAACGGAAAUGCAAUCAGUGCCUGGACGUGCAGU
modifications: 2'-F on all C and U
B18: g1 2'-F (ssRNA)
RNA: GGGACGCUCACGUACGCUAAACACACUGAGAGUUUGACCAGCUAUUAAAUGGGUCGUGACUCAGUGCCUGGACGUGCAGU
modifications: 2'-F on all C and U
B19: g35 2'-F (ssRNA)
RNA: GGGACGCUCACGUACGCUAAGAUUUGUGUGAUACCCGACACUCUAACGGGGUAGCAGGGCUCAGUGCCUGGACGUGCAGU
modifications: 2'-F on all C and U
B20: g21 2'-F (ssRNA)
RNA: GGGACGCUCACGUACGCUAACCUUGGUGUCAUCCGACCAAAUUAGAACGGGAUGAGGAAGUCAGUGCCUGGACGUGCAGU
modifications: 2'-F on all C and U
B21: g2 2'-F (ssRNA)
RNA: GGGACGCUCACGUACGCUAAACCCUGGCGAUCUCCGGCCGGAUACGGGAGAACGAGGUACUCAGUGCCUGGACGUGCAGU
modifications: 2'-F on all C and U
B22: g17 2'-F (ssRNA)
RNA: GGGACGCUCACGUACGCUAAAGUGAUGGCCGGCUGGAGAAACGGGCCACUCGAUCCAGGUCAGUGCCUGGACGUGCAGU
modifications: 2'-F on all C and U
B23: g34 2'-F (ssRNA)
RNA: GGGACGCUCACGUACGCUAAUUUGGUGAAUUCCGACCAUUUUGCAAACGGGAUACGGGACUCAGUGCCUGGACGUGCAGU
modifications: 2'-F on all C and U
B24: g8 2'-F (ssRNA)
RNA: GGGACGCUCACGUACGCUAAGGGCACUUAAAACCAGACCGUGAUUUGCGGUUGGUCUCGCUCAGUGCCUGGACGUGCAGU
modifications: 2'-F on all C and U
B25: g12 2'-F (ssRNA)
RNA: GGGACGCUCACGUACGCUAACGCGGCCAUCCGGCGUUUGGAACGGGAUGUACACCUGACAUCAGUGCCUGGACGUGCAGU
modifications: 2'-F on all C and U
B26: g19 2'-F (ssRNA)
RNA: GGGACGCUCACGUACGCUAAGUAGCCGUGAUUGGGUUGGCUGCCCACAAUUAUCCAGGACUCAGUGCCUGGACGUGCAGU
modifications: 2'-F on all C and U
B27: g10 2'-F (ssRNA)
RNA: GGGACGCUCACGUACGCUAAACACAGCUCUGAUGGUCGUGAUUAGGUUGACCACCUACCUUCAGUGCCUGGACGUGCAGU
modifications: 2'-F on all C and U
B28: g5 2'-F (ssRNA)
RNA: GGGACGCUCACGUACGCUAAGCCCAACGAACAUUUUGAGUUUCCAGGCAGCUCAUAGACAUCAGUGCCUGGACGUGCAGU
modifications: 2'-F on all C and U
B29: g6 2'-F (ssRNA)
RNA: GGGACGCUCACGUACGCUAAUCCAGGUGUGGCGAGCCACUGUAAGAGUCGCCGUGAGGAUUCAGUGCCUGGACGUGCAGU
modifications: 2'-F on all C and U
B30: g27 2'-F (ssRNA)
RNA: GGGACGCUCACGUACGCUAACCUAUGCAGACCGACAUCCGGGUAUACGGGAUGAUGCGACUCAGUGCCUGGACGUGCAGU
modifications: 2'-F on all C and U
B31: g14 2'-F (ssRNA)
RNA: GGGACGCUCACGUACGCUAAUCAUCGGGACAUCGGAUGGAACGGGUGUCAAGAAGCGUGUUCAGUGCCUGGACGUGCAGU
modifications: 2'-F on all C and U
B32: g28 2'-F (ssRNA)
RNA: GGGACGCUCACGUACGCUAACCUGGGGGUUCCGCAGGAAUCGGGAACUAGAUUGGUGGUCUCAGUGCCUGGACGUGCAGU
modifications: 2'-F on all C and U
B33: g9 2'-F (ssRNA)
RNA: GGGACGCUCACGUACGCUAAGAUGUCUCAAUUGGUCGUGAUUGUGCUGACCACACGAACCUCAGUGCCUGGACGUGCAGU
modifications: 2'-F on all C and U
B34: g26 2'-F (ssRNA)
RNA: GGGACGCUCACGUACGCUAAGCUCCACCAGGUGUAGCUAGCCUGUAGACAUCAGUAGCAUCAGUGCCUGGACGUGCAGU
modifications: 2'-F on all C and U
B35: g11 2'-F (ssRNA)
RNA: GGGACGCUCACGUACGCUAAGUUUAGGUGGCAUCGACCUUCAUGAAACGGGUGCACAGGCUCAGUGCCUGGACGUGCAGU
modifications: 2'-F on all C and U

The target of the series is rec-cMet (Recombinant Human HGF R/c-MET/Fc Chimera) (Homo sapiens, UniProt P08581;P08581 SEQ:1-283,SEQ:1-625). In words: SPR; rec-cMet 60 nM. Conditions: tags: C-terminal HIEGRMD linker, human IgG Fc (100-330), 6xHis; R&D Systems; chain copies: 2 (inferred, Fc chimera). How it is done: Using these truncated RNA aptamers, the binding ability thereof to the rec-cMet was examined. The binding ability was analyzed using BIACORE (registered trademark) X (GE Healthcare) in accordance with its instructions for use, with the concentration of the rec-cMet being set to 175 nmol/L. Also, the binding ability of each of the RNA aptamers g1 and g1-trA was examined in the same manner. As a comparative example, the 40N was used, and the binding ability thereof was examined in the same manner.
Chain of rec-cMet (Recombinant Human HGF R/c-MET/Fc Chimera) (P08581 25-307, stated change not applied, chain 1 of 2): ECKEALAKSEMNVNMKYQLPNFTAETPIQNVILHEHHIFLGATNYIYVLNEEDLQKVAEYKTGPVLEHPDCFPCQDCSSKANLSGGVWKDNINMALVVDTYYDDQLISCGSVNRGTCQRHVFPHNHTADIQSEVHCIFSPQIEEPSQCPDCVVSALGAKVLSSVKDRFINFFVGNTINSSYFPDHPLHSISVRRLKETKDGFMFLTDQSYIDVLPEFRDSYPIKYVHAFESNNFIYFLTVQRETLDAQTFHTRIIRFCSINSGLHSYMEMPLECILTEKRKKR
Chain of rec-cMet (Recombinant Human HGF R/c-MET/Fc Chimera) (P08581 308-932, stated change not applied, chain 2 of 2): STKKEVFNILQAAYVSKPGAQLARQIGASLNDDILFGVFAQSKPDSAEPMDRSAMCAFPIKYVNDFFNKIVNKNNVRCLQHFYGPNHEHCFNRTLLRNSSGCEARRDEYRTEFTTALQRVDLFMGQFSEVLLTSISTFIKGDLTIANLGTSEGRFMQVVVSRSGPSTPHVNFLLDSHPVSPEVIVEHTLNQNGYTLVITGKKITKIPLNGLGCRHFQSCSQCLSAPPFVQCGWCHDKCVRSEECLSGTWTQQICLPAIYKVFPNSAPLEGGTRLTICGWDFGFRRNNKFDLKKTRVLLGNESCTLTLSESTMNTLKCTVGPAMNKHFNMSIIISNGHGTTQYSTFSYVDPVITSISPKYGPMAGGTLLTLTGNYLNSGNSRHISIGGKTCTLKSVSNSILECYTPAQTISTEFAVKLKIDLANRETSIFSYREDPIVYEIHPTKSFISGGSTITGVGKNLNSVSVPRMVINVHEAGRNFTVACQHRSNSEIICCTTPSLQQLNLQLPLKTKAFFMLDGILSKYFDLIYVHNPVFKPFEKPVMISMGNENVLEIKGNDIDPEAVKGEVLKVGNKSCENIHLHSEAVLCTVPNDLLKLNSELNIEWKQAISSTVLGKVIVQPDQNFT
The binding ability of each of the RNA aptamers to the rec-cMet was examined in the same manner as in Example 5, except that the fluorinated RNA aptamers were used. The concentration of the rec-cMet was set to 60 nmol/L. With the time point at which the introduction of the rec-cMet to the chip was started being 0 seconds, introduction of a buffer was started 60 seconds later. As a comparative example, the same negative control as in Example 6 was used.
Consider B1, for which the binding result is “binds”.
As for B2, the binding result is given as “binds”.
B3: the binding result is given as “binds”.
Then B4, with “binds”; and B5, with “binds”.
Then B6, with “binds”; and B7, with “binds”.
Then B8, with “binds”; and B9, with “binds”; and B10, with “binds”.
As for B11, the binding result was “binds”.
On to B12, for which the binding result is reported as “binds”.
Then B13, with “binds”; and B14, with “binds”; and B15, with “binds”.
To B16 belongs “binds”; to B17, “binds”; to B18, “binds”.
To B19 belongs “binds”; to B20, “binds”; to B21, “binds”.
In the case of B22, the binding result was “binds”.
As for B23, the binding result is “binds”.
With B24, the binding result is listed as “binds”.
Then B25, with “binds”; and B26, with “binds”.
Then B27, with “binds”.
As for B28, the binding result is on record as “binds”.
Then B29, with “binds”; and B30, with “binds”; and B31, with “binds”.
To B32 belongs “binds”; to B33, “binds”; to B34, “binds”.
To B35 belongs “binds”.
